Patent publication US6254870, “Thrombopoietin: IL-3 fusion protein” (G. D. Searle & Co., dated 2001)

Legend:
[1] = biological target: T1, human c-mpl-R (human, UniProt P40238); experiment: cell-based or functional assay
[2] = biological target: T1, human c-mpl-R; experiment: cell-based or functional assay; remark: listed apart in the source

Row | TF1 Proliferation Assay: total counts tritiated thymidine incorporation, 10% supernatants [1] | Bone Marrow Proliferation Assay: Cells/Well after 10 Day Culture of CD34+ enriched cells [2] | Binder
1 | 35600 total counts | < 500 cells/well | 1-332 Δ112-115 c-mpl ligand (pMON26451-3) (ligand) SPAPPACDLRVLSKLLRDSHVLHSRLSQCPEVHPLPTPVLLPAVDFSLGEWKTQMEETKAQDILGAVTLLLEGVMAARGQLGPTCLSSLLGQLSGQVRLLLGALQSLLGTQGRTTAHKDPNAIFLSFQHLLRGKVRFLMLVGGSTLCVRRAPPTTAVPSRTSLVLTLNELPNRTSGLLETNFTASARTTGSGLLKWQQGFRAKIPGLLNQTSRSLDQIPGYLNRIHELLNGTRGLFPGPSRRTLGAPDISSGTSDTGSLPPNLQPGYSPSPTHPPTGQYTLFPLPPTLPTPVVQLHPLLPDPSAPTPTPTSPLLNTSYTHSQNLSQEG
2 | 122000 total counts | 16000 cells/well | 1-332 c-mpl ligand P(46)L, W(200)R (pMON26451-4) (ligand) SPAPPACDLRVLSKLLRDSHVLHSRLSQCPEVHPLPTPVLLPAVDLSLGEWKTQMEETKAQDILGAVTLLLEGVMAARGQLGPTCLSSLLGQLSGQVRLLLGALQSLLGTQLPPQGRTTAHKDPNAIFLSFQHLLRGKVRFLMLVGGSTLCVRRAPPTTAVPSRTSLVLTLNELPNRTSGLLETNFTASARTTGSGLLKRQQGFRAKIPGLLNQTSRSLDQIPGYLNRIHELLNGTRGLFPGPSRRTLGAPDISSGTSDTGSLPPNLQPGYSPSPTHPPTPLLPDPSAPTPTPTSPLLNTSYTHSQNLSQEG
3 | 60800 total counts | < 500 cells/well | 1-153 Δ112-115 c-mpl ligand (pMON26450) (ligand) SPAPPACDLRVLSKLLRDSHVLHSRLSQCPEVHPLPTPVLLPAVDFSLGEWKTQMEETKAQDILGAVTLLLEGVMAARGQLGPTCLSSLLGQLSGQVRLLLGALQSLLGTQGRTTAHKDPNAIFLSFQHLLRGKVRFLMLVGGSTLCVR
4 | 115000 total counts | 22500 cells/well | 1-153 c-mpl ligand (pMON26448) (ligand) SPAPPACDLRVLSKLLRDSHVLHSRLSQCPEVHPLPTPVLLPAVDFSLGEWKTQMEETKAQDILGAVTLLLEGVMAARGQLGPTCLSSLLGQLSGQVRLLLGALQSLLGTQLPPQGRTTAHKDPNAIFLSFQHLLRGKVRFLMLVGGSTLCVR
